According to PMC3522258:

Legend:
[1] = target: T1, RIG-I (ΔCARDs) (human, UniProt O95786 229-925); assay: EMSA
T1 sequence: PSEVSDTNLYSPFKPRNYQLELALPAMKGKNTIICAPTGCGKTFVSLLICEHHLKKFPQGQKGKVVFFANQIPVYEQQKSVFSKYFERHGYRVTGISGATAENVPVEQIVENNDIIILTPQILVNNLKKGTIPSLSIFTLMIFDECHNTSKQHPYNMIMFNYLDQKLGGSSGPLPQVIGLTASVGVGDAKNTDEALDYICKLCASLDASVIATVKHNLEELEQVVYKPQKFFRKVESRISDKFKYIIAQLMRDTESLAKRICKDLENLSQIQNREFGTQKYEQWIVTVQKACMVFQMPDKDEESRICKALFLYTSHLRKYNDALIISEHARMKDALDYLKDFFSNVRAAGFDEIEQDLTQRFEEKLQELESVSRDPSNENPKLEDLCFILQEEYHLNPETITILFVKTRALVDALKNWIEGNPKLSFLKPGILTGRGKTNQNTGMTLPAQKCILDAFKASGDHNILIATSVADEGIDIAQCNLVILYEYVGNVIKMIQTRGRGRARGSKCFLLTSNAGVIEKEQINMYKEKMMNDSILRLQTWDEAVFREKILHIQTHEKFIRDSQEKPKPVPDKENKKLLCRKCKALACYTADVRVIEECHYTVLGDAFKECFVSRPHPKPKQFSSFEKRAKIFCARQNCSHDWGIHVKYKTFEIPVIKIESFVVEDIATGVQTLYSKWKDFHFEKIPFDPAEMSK

[2] = target: T2, full-length RIG-I (human, UniProt O95786 1-925); assay: EMSA
T2 sequence: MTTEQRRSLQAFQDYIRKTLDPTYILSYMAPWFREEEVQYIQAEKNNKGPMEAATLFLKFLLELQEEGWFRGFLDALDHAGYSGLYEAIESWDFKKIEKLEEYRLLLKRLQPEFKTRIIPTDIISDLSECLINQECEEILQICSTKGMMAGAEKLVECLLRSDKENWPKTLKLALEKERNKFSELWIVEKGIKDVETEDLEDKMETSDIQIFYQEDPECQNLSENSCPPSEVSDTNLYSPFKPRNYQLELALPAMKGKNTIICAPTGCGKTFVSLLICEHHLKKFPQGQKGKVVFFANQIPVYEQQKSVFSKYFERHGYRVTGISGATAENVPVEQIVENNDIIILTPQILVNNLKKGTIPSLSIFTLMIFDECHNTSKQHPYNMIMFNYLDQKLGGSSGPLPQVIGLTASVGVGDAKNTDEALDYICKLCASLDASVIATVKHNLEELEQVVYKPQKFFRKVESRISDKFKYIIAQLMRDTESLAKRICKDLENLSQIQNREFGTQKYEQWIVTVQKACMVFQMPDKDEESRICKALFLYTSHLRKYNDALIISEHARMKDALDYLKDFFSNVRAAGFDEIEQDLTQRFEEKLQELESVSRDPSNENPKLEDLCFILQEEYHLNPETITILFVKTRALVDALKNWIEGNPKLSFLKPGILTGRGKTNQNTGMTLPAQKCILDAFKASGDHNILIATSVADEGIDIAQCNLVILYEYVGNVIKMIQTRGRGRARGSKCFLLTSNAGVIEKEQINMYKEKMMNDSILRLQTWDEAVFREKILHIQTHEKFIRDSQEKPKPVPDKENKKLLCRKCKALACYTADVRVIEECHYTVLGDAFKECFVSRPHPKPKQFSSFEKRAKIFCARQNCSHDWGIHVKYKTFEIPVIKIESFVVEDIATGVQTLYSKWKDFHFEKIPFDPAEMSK

[3] = target: T3, CTD (human, UniProt O95786 792-925); assay: EMSA
T3 sequence: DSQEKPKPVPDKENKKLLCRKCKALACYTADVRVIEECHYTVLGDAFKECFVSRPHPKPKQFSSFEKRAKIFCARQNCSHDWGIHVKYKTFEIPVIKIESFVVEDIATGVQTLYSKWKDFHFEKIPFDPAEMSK

[4] = target: T4, HD (helicase domain) (human, UniProt O95786 229-793); assay: EMSA
T4 sequence: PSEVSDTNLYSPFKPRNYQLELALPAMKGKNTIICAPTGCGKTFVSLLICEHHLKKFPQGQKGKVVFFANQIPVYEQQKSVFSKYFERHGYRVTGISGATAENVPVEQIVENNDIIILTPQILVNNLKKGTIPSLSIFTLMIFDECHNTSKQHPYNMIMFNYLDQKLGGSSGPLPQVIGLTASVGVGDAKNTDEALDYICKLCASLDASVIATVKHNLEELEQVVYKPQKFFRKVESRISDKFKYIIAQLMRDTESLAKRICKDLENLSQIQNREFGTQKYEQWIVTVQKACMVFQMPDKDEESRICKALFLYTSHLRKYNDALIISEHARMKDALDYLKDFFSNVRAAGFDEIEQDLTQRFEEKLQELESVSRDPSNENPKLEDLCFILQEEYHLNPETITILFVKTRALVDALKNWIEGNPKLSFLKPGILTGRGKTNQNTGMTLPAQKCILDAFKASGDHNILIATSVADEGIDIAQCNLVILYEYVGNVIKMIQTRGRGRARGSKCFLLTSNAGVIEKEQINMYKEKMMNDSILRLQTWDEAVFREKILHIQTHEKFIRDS

[5] = target: T1, RIG-I (ΔCARDs); assay: competition

B1: 5'-OH 14 dsRNA (dsRNA)
RNA 1: ACCUCCCACCCCCG
RNA 2: CGGGGGUGGGAGGU
modifications: 5'-OH on top strand
Kd [1]: 3.6 ± 0.9 nM
Kd [2]: 20 ± 3 nM
Kd [3]: 5900 ± 750 nM

B2: 5'-ppp 14 dsRNA (dsRNA)
RNA 1: ACCUCCCACCCCCG
RNA 2: CGGGGGUGGGAGGU
modifications: 5'-triphosphate on top strand
Kd [1]: 0.041 ± 0.002 nM
Kd [4]: 760 ± 20 nM
Kd [2]: 0.159 ± 0.02 nM
Kd [3]: 0.5 ± 0.06 nM

B3: 5'-OH 14 dsRNA, unlabeled competitor (dsRNA)
RNA 1: ACCUCCCACCCCCG
RNA 2: CGGGGGUGGGAGGU
modifications: 5'-OH
Ki [5]: 13 nM
